Biological target: gp91^phox, the catalytic subunit of NADPH oxidase (Nox2) (mouse (endogenous in mouse microglia)) (UniProt Q61093)
Sequence (Q61093 whole entry): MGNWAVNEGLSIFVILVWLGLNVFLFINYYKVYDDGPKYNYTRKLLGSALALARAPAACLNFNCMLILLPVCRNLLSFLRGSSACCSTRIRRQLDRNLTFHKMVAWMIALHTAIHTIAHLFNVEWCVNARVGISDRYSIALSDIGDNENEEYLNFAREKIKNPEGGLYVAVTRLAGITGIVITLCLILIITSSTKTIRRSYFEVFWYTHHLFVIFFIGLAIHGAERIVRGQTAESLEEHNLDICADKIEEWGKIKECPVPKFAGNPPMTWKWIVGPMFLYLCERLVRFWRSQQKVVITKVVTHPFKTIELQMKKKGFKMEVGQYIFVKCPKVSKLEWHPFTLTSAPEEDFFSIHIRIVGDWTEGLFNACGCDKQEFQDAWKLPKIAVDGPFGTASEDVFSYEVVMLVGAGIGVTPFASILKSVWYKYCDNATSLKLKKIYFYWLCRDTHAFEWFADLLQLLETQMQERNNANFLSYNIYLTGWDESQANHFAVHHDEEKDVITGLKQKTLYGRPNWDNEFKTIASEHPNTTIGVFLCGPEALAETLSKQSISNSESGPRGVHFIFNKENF

Substance: A29-V40 α-Syn peptide (WT, unlabeled, purity >98 %) (from UniProt P37840 29-40)
- extracellular superoxide released by mouse microglia (SOD-inhibitable WST-1 reduction), 1.0 μM peptide, increase over the BSA control (% increase compared to the BSA control): 129
